Results as given in patent US7109170B2, “Region of factor IXa protease domain that interacts with factor VIIIa and methods therefor” (Saint Louis University, priority 1999, dated 2006).

Key:
Assay type in all cases: biochemical
[1] = tested on: Factor IX deficient plasma; test: coagulant activity of XIa-activated IXa proteins
[2] = biological target: T1, factor X (Homo sapiens, UniProt P00742); test: factor X activation in complete intrinsic Tenase system (IXa, Ca2+, phospholipid, VIIIa); set-up: Normal human plasma factor IX (IXNP) and factor X were isolated as described in Bajaj and Birktoft; from tissue; host or cells: human plasma (factor X); factor VIII obtained from Dr. Leon Hoyer, American Red Cross; details: 70 pM VIIIa, 0.5 nM IXa, 15 nM X, phospholipid present
Description: (§1) The ability of each activated mutant to activate factor X in the presence and absence of phospholipid and factor VIIIa was determined as follows. The activation was carried out at 37° C. in a 50 μl reaction volume, in TBS/BSA pH 7.4, for various time periods. At the end of the incubation time period, each reaction mixture received 1 μl of 0.5 M EDTA to stop further generation of factor Xa. A 40 μL aliquot was then added to 0.1 ml quartz cuvette containing S-2222 in 75 μL of TBS/BSA, pH 7.4. The final concentration of S-2222 was 100 μM. The p-nitroaniline release was measured continuously (ΔA405/min) for up to 20 min (Sabharwal et al., 1995 supra; Sabharwal et al., 1997, supra). Factor Xa generated was calculated from a standard curve constructed using factor Xa prepared from insolubilized Russell's viper venom.
(§2) Factor X activation measurements were made under four experimental regimes. In one, Ca^2+ and phospholipid were present. In this system activation was carried out for 5–15 minutes and the concentration of each IXa protein was 20 nM, phospholipid was 25 μM, and factor X was 100 nM. In the second regime, Ca^2+, phospholipid and factor VIIIa were present. […] In the third regime, only Ca^2+ was present. Here, activation was carried out for 2–20 min and concentration of each IXa protein was 400 nM and factor X was 1 μM. Finally, in the fourth regime, Ca^2+ and VIIIa were present. Here, activation was carried out for 15–120 sec and the concentration of each IXa protein was 2 μM, VIIIa was 14 nM, and factor X was 400 nM.
(§3) In all of the above factor X activation experiments, the incubation times chosen were those in which the factor Xa generated was always less than 10 nM. This precautionary measure was taken to prevent activation of factor X by the generated factor Xa (see, e.g., Link. and Castellino, 1982, Arch Biochem. Biophys. 215, 215–221). Further, in those incubation mixtures which contained […], control experiments were also performed in which factor VIIIa was omitted. […] In the presence of factor VIIIa, 10 μM phospholipid was used based upon previous observations (Mathur et al., 1997, supra; van Dieijen et al., 1981, J. Biol. Chem. 256, 3433–3442). The concentrations of factor X selected for each set of reaction conditions are those which are below or at the Km values (van Dieijen et al., supra; Fay and Koshibu, 1998, J Biol. Chem. 273, 19049–19054). In this region of the Michaelis-Menton curve, the rate of formation of factor Xa is proportional to the substrate factor X and therefore to the affinity of the factor IXa enzyme for factor X.
Next, the activation of factor X in a complete intrinsic Tenase system (IXa, Ca^2+, phospholipid, VIIIa) was studied.

[3] = biological target: T1, factor X; test: factor X activation by IXa proteins, Ca2+ and VIIIa, no phospholipid; set-up: Normal human plasma factor IX (IXNP) and factor X were isolated as described in Bajaj and Birktoft; from tissue; host or cells: human plasma (factor X); factor VIII obtained from Dr. Leon Hoyer, American Red Cross; details: 14 nM VIIIa, 400 nM factor X
Description: as §1, §2, §3

T1 sequence (P00742 183-488 limits assumed): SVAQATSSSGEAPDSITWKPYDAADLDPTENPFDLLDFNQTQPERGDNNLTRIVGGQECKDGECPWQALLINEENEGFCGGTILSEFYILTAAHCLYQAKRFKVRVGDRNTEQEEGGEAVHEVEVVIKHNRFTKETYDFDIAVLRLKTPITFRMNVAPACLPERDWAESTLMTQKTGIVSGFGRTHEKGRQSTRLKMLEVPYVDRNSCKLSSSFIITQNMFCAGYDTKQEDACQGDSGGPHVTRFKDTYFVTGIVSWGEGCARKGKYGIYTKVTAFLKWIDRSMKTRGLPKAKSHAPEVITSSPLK
T1 sequence (P00742 41-179 limits assumed): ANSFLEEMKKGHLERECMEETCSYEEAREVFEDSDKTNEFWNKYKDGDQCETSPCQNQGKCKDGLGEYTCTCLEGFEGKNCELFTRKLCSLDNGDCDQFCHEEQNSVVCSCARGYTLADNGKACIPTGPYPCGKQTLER
T1 sequence (P00451 20-759 partner limits assumed): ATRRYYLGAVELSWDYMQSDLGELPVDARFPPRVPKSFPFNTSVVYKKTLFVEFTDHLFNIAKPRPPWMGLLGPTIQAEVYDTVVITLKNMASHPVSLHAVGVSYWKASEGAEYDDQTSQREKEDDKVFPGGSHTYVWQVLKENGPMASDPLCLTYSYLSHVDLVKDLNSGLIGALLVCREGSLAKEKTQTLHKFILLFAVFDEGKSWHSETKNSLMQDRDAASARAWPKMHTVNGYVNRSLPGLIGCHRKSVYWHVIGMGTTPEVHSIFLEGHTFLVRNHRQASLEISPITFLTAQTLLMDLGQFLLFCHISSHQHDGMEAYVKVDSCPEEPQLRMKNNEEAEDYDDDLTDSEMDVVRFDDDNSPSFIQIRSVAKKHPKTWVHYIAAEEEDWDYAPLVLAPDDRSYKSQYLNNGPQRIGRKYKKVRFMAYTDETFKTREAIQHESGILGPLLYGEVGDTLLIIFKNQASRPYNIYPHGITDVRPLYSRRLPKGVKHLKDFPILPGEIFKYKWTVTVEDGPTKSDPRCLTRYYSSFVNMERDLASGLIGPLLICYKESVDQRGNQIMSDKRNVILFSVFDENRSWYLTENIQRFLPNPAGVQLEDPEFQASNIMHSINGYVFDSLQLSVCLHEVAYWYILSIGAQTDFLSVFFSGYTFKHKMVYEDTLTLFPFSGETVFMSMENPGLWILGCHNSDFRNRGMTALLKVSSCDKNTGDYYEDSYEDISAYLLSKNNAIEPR
T1 sequence (P00451 1668-2351 partner limits assumed): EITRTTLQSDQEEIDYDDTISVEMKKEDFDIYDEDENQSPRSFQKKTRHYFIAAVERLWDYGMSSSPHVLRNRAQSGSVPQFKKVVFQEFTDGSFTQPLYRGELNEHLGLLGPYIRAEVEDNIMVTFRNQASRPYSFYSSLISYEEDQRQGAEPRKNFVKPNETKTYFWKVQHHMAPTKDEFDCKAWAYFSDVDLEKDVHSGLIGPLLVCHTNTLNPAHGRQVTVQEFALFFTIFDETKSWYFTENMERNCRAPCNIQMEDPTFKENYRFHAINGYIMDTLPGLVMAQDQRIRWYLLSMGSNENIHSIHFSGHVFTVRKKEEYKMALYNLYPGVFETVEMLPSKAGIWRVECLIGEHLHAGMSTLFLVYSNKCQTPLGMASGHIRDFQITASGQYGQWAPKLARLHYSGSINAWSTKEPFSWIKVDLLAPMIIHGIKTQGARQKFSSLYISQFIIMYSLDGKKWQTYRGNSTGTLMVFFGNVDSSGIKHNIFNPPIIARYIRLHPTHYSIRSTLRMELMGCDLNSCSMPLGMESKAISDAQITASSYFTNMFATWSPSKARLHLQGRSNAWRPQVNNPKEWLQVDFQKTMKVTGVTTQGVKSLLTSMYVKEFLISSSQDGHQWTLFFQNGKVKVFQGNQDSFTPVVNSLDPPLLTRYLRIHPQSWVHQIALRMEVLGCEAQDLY

Substance: IXaV331A: activated factor IX mutant V331A
- coagulant activity as compared to IXaNP [1]: ~6%
- X-activation rate, PL-plus system [2]: 0.55 ± 0.04 nM/min
- X-activation rate, PL-minus system [3]: 0.54 ± 0.02 nM/min
